# From IntAct's records for PubMed 31515488
# B1: L-fucose dehydrogenase (Homo sapiens), Q9BPX1 (parent)
# chain: MATGTRYAGKVVVVTGGGRGIGAGIVRAFVNSGARVVICDKDESGGRALEQELPGAVFILCDVTQEDDVKTLVSETIRRFGRLDCVVNNAGHHPPPQRPEETSAQGFRQLLELNLLGTYTLTKLALPYLRKSQGNVINISSLVGAIGQAQAVPYVATKGAVTAMTKALALDESPYGVRVNCISPGNIWTPLWEELAALMPDPRATIREGMLAQPLGRMGQPAEVGAAAVFLASEANFCTGIELLVTGGAELGYGCKASRSTPVDAPDIPS
# B2: Ligand of Numb protein X 2 (Homo sapiens), Q8N448 (parent)
# chain: MGTTSDEMVSVEQTSSSSLNPLCFECGQQHWTRENHLYNYQNEVDDDLVCHICLQPLLQPLDTPCGHTFCYKCLRNFLQEKDFCPLDRKRLHFKLCKKSSILVHKLLDKLLVLCPFSSVCKDVMQRCDLEAHLKNRCPGASHRRVALERRKTSRTQAEIENENGPTLLDPAGTLSPEADCLGTGAVPVERHLTSASLSTWSEEPGLDNPAFEESAGADTTQQPLSLPEGEITTIEIHRSNPYIQLGISIVGGNETPLINIVIQEVYRDGVIARDGRLLAGDQILQVNNYNISNVSHNYARAVLSQPCNTLHLTVLRERRFGNRAHNHSDSNSPREEIFQVALHKRDSGEQLGIKLVRRTDEPGVFILDLLEGGLAAQDGRLSSNDRVLAINGHDLKYGTPELAAQIIQASGERVNLTIARPGKPQPGNTIREAGNHSSSSQHHTPPPYYSRPSSHKDLTQCVTCQEKHITVKKEPHESLGMTVAGGRGSKSGELPIFVTSVPPHGCLARDGRIKRGDVLLNINGIDLTNLSHSEAVAMLKASAASPAVALKALEVQIVEEATQNAEEQPSTFSENEYDASWSPSWVMWLGLPSTLHSCHDIVLRRSYLGSWGFSIVGGYEENHTNQPFFIKTIVLGTPAYYDGRLKCGDMIVAVNGLSTVGMSHSALVPMLKEQRNKVTLTVICWPGSLV
# Variants of: B1
# Conditions: with psa1_human PSMA1, P25786
row,Variant,effect of a mutation on the interaction
1,A56T,with no effect
2,G16W,with no effect
3,R130W,disrupting interaction strength

# Variants of: B1
# Conditions: with sr1ip_human SREK1IP1, Q8N9Q2
row,Variant,effect of a mutation on the interaction
1,A56T,with no effect
2,R130W,disrupting interaction strength

# Variants of: B1
# Conditions: with ntaq1_human NTAQ1, Q96HA8
row,Variant,effect of a mutation on the interaction
1,A56T,with no effect
2,R130W,disrupting interaction strength

# Variants of: B1
# Conditions: with phf1_human PHF1, O43189
row,Variant,effect of a mutation on the interaction
1,G16W,with no effect

# Variants of: B1
# Conditions: with cah8_human CA8, P35219
row,Variant,effect of a mutation on the interaction
1,G16W,with no effect

# Variants of: B2
# Conditions: with tbb5_human TUBB
row,Variant,effect of a mutation on the interaction
1,V145I,with no effect
2,T183I,with no effect

# Variants of: B2
# Conditions: with mk09_human MAPK9, P45984
row,Variant,effect of a mutation on the interaction
1,V145I,with no effect
2,S141A,with no effect
3,Y266C,with no effect
4,T183I,with no effect

# Variants of: B2
# Conditions: with at2l2_human PHYKPL
row,Variant,effect of a mutation on the interaction
1,V145I,with no effect
2,T183I,with no effect

# Variants of: B2
# Conditions: with ip6k2_human IP6K2, Q9UHH9
row,Variant,effect of a mutation on the interaction
1,V145I,with no effect
2,T183I,with no effect

# Variants of: B2
# Conditions: with optn_human OPTN
row,Variant,effect of a mutation on the interaction
1,V145I,with no effect
2,S141A,with no effect
3,Y266C,disrupting interaction strength
4,T183I,with no effect
